Earlier results, collected in paper PMC11578925.

Experiments:
[1] = target: PD-L1 (Homo sapiens) (UniProt Q9NZQ7)
[2] = target: CD28 (Homo sapiens) (UniProt P10747)

Chain of UniProt Q9NZQ7 (Q9NZQ7 19-238): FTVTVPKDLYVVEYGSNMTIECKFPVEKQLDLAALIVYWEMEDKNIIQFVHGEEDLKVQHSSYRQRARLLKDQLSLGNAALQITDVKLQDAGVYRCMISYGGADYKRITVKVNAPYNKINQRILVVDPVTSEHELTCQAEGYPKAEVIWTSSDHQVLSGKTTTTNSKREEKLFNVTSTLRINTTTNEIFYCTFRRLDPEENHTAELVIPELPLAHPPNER

Kd [1]: 1.7 µM | Kd [2]: 4 µM
Substance: CD80 (from UniProt P33681)
